In paper PMC3355487 (mAbs, 2012):
Read-outs that look alike come from different tables or passages of the source.

Tests used:
Fc-hROR1 [1] = biological target: T1, Fc-hROR1 (Homo sapiens, UniProt Q01973); experiment: SPR
hROR1-ECD [2] = biological target: T2, hROR1-ECD (Homo sapiens, UniProt Q01973); experiment: SPR
Fc-mROR1 = Fc-mROR1 (Mus musculus, UniProt Q9Z139); experiment: ELISA
Fc-hROR1Fz+Kr = Fc-hROR1Fz+Kr (Homo sapiens, UniProt Q01973); experiment: ELISA
Fc-hROR1Fz = Fc-hROR1Fz (Homo sapiens, UniProt Q01973); experiment: ELISA
Fc-hROR1Kr = Fc-hROR1Kr (Homo sapiens, UniProt Q01973); experiment: ELISA
Fc-hROR1 [3] = biological target: T1, Fc-hROR1; experiment: SPR; remark: listed apart in the source
hROR1-ECD [4] = biological target: T2, hROR1-ECD; experiment: SPR; remark: listed apart in the source

T1 sequence (Q01973 30-406): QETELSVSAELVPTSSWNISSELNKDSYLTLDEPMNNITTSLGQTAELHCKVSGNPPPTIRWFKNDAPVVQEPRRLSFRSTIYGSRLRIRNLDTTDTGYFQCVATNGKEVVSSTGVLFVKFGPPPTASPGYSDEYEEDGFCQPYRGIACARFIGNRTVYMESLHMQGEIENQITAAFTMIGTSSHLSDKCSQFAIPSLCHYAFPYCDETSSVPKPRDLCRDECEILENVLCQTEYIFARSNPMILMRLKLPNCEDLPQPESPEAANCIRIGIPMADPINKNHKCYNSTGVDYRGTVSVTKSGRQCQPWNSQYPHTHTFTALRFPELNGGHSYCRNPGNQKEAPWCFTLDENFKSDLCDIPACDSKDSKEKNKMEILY
T2 sequence (Q01973 30-406): as above
Sequence of Fc-mROR1 (Q9Z139 30-406): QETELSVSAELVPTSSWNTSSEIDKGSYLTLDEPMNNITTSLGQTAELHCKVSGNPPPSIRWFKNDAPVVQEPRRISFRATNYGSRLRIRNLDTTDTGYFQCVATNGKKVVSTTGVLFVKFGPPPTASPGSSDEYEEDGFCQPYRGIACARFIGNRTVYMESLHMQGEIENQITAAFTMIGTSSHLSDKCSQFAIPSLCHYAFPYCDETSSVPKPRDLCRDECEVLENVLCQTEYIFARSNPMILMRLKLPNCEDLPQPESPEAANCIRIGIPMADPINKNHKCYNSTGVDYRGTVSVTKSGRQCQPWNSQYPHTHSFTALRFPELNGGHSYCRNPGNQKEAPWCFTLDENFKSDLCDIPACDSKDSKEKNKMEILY
Sequence of Fc-hROR1Fz (Q01973 165-299): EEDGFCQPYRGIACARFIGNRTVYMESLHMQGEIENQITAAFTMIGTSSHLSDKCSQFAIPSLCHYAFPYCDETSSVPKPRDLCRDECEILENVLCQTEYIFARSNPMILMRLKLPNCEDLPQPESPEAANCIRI

B1: mouse anti-human ROR1 monoclonal antibody 2A2-IgG (antibody, V domains shown)
VH: QVQLQQSGAELVRPGASVTLSCKASGYTFSDYEMHWVIQTPVHGLEWIGAIDPETGGTAYNQKFKGKAILTADKSSSTAYMELRSLTSEDSAVYYCTGYYDYDSFTYWGQGTLVTVSA
VL: DIVMTQSQKIMSTTVGDRVSITCKASQNVDAAVAWYQQKPGQSPKLLIYSASNRYTGVPDRFTGSGSGTDFTLTISNMQSEDLADYFCQQYDIYPYTFGGGTKLEIK
Kd (Fc-hROR1 [1]): 0.42 nM
koff (Fc-hROR1 [1]): 0.00034 s⁻¹
kon (Fc-hROR1 [1]): 810000 M⁻¹ s⁻¹
Kd (hROR1-ECD [2]): 0.12 nM
koff (hROR1-ECD [2]): 0.00018 s⁻¹
kon (hROR1-ECD [2]): 1.52e+06 M⁻¹ s⁻¹
binding result (Fc-mROR1): binds
binding result (Fc-hROR1Fz+Kr): no binding
binding result (Fc-hROR1Fz): no binding
binding result (Fc-hROR1Kr): no binding
Kd (Fc-hROR1 [3]): 0.79 nM
koff (Fc-hROR1 [3]): 0.00018 s⁻¹
kon (Fc-hROR1 [3]): 230000 M⁻¹ s⁻¹
Kd (hROR1-ECD [4]): 32.6 nM
koff (hROR1-ECD [4]): 0.00777 s⁻¹
kon (hROR1-ECD [4]): 240000 M⁻¹ s⁻¹
